Tested on: MS2 coat protein
Experiment: apparent KD of MS2 coat protein; designed switch direction (-1 OFF switch, 1 ON switch): 1; higher = weaker reporter binding
How it was run: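 For each design, the apparent KD is the median over clusters of curves fitted to normalised cluster fluorescence. Clusters held RNA switches with common flanks, transcribed on Illumina chips by stalled E. coli RNA polymerase. These were titrated with SNAP-549-labelled MS2 coat protein, doubling from 0.7 or 1.5 nM to 3 µM, without input, with 200 uM small-molecule ligand, or with an oligonucleotide input.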

[1] = Eterna round: R95, input ligand: FMN 200 uM
[2] = Eterna round: R95, input ligand: microRNA oligo, concentration not stated
[3] = Eterna round: R95, input ligand: none
[4] = input ligand: microRNA oligo, concentration not stated

Sequence	apparent KD of MS2 coat protein [1]	apparent KD of MS2 coat protein [2]	apparent KD of MS2 coat protein [3]	apparent KD of MS2 coat protein (input ligand: FMN 200 uM)	apparent KD of MS2 coat protein [4]	apparent KD of MS2 coat protein (input ligand: none)
AGUCCUGAAAAGAAAAUAAAGAGAGAUGUACAUGAGGAUCACCCAUGUCAUGUACAAGUUCUAUGCUCGUCAUAUAA [Sensorship 23 - Jieux - Sensor for hsa-mir-208a] (puzzle: Sensor for hsa-mir-208a)	913 nM	113 nM	1430 nM	–	–	–
AUUUUAAAACAUGAGGAUCACCCAUGUUACAAGCUUUUUUUUUUUUUUUUUUUUUGGUGAUCCUCAGCUCGUCUUAU [lrlee 1] (puzzle: Sensor for hsa-mir-208a version 2)	1.51 nM	5.16 nM	0.902 nM	–	–	–
GUUACAUGAGGAUCACCCAUGUAUGUGUGGGAGUAAGUGUCUUAGGAUAUCUAGUAUUUAAUUUUAGAGAAGGAAGAUUGUUGU [JMF's solution 69] (Eterna round: R96, puzzle: Same State NG 3)	–	–	–	128 nM	121 nM	134 nM
AAGAAAUCCGCAGGAUAUCCUAAGCCGGACUUAGGAGAAGGGUGGCCACAUGAGGAUCACCCAUGUAAAAGCUGAAUCACAGCC [Vetianeste] (Eterna round: R96, puzzle: Same State NG 1)	–	–	–	554 nM	385 nM	497 nM
CAGCGCUGUCGAGAGGAUAUGCGGUGGUGGACAUGAGGAUCACCCAUGUUAGCGAUAGCAUUACGGUAGAAGGCUCUACAGCUGC [Soteed - 2] (puzzle: Same State 2)	30.9 nM	22.4 nM	33 nM	–	–	–
UCUUGGUUUUUGCUCGUUUUUUGUGUUGAACAUGAGGAUCACCCAUGUAUUGUACGGUCCGAUUUAAUAAUGGUCCG [JMF 22] (puzzle: Sensor for hsa-mir-208a)	23.5 nM	14.4 nM	25.5 nM	–	–	–
GGAUGAUAGACAGGAUAUUGAUUGUAAUUAGGUCAAGAAGGGUCUUUGAUUUAAACGACCAGUUACAUGAGGAUCACCCAUGUU [JR_SSNG1_Sub028] (Eterna round: R96, puzzle: Same State NG 1)	–	–	–	82.5 nM	65.9 nM	201 nM
AUCCUACAUGAGGAUCACCCAUGUGAGGCCUCAAUAGGAUAUGCGUGUGCCUUGGCGCAUGCAGAAGGAUUGAAGC [JL Aveso mod 2] (puzzle: Same State 1)	–	159 nM	–	–	–	–
UUAUUAUUUACAUGAGGAUCACCCAUGUUUUUAUGUCAGAGACAGGAUAUAGUAGUCUCGUUUUACUAGAAGGGUCUUUUUAUU [JR_SSNG3_Sub017] (Eterna round: R96, puzzle: Same State NG 3)	–	–	–	15.2 nM	18.9 nM	22.1 nM
GCCGCGUUUCGCGCCUACAUGAGGAUCACCCAUGUUUGUAGGCAGGAUAUCGUUUGCUUUGCAAUCGAGAAGGGCUGUUGUGGC [salish99_SSNG3_R04_014] (Eterna round: R96, puzzle: Same State NG 3)	–	–	–	33 nM	44.6 nM	56.6 nM
AUUAUUAAUGCAGGAUAUGAUUAACAUGAGGAUCACCCAUGUGGUGUUGUGAGUAAGGAGAGUGAUCAGAAGGGCAUAUUUUUU [JMF's solution 9] (Eterna round: R96, puzzle: Same State NG 2)	–	–	–	668 nM	407 nM	625 nM
GGGAGAGGUACAGGAUAUGGUGAGGAUCACCCACUAGAAGGGUGCACAUGUGAAUCGGACAUGAGGAUCACCCAUGUUUGGCGU (Eterna round: R96, puzzle: Same State NG 1)	–	–	–	86.7 nM	74.8 nM	133 nM
UGUUGUAAUACAGGAUAUCUAUUAUUUUUAUUUAGAGAAGGGUAAUCACAUGAGGAUCACCCAUGUAUAUACGAGGAAGAAGAG [JMF's solution 4] (Eterna round: R96, puzzle: Same State NG 1)	–	–	–	–	126 nM	–
UGGCUCAGACGAGGAUAUGAUCAUGGCGCUUCGGCGCAUACAUGAGGAUCACCCAUGUAAAGUGAUCAGAAGGUGUCUGAGCCU [SSNG2/7-B3] (Eterna round: R96, puzzle: Same State NG 2)	–	–	–	11.5 nM	12.4 nM	14.4 nM
GGAGCCAGCACCGAGGAUAUUCAUAUUAAAACAUGAGGAUCACCCAUGUAGGCCAGAAGGCCUUGGGAGAAGGCGGAUUGGCUCG [Xeonanis - 10] (puzzle: Same State 2)	35.3 nM	327 nM	496 nM	–	–	–
UACAAUCUAUCUGAGGAUAUCAUGAUUCUAACAUGAGGAUCACCCAUGUGCAGGAAAACUGCAUAUGAGAAGGCAGAUAGAUUGU [salish99_ss2_r3_072] (puzzle: Same State 2)	67.7 nM	33.3 nM	148 nM	–	–	–
AUUAAACAUGAGGAUCACCCAUGUCAACAAAGUCGAGGAUAUGGGCAAAUAAAAUAAGAACCAGAAGGCGAAUAAU [salish99_ss1_r3_048] (Eterna round: R96, puzzle: Same State 1)	–	–	–	–	193 nM	–
GUGGUGAAUUAAGGAUAUCGAGUCUAGAUGUUAAACAUGAGGAUCACCCAUGUGGGUUGCGGUAUCGAGAAGGUAAUUUACGGG [salish99_SSNG2_r04_507] (Eterna round: R96, puzzle: Same State NG 2)	–	–	–	25.4 nM	26.1 nM	47.2 nM
UUGAAGAAUAUAGGAUAUUGAAUACAUAUGUUUAACAUGAGGAUCACCCAUGUGGGUUGCGGUAUCGAGAAGGAUAAUUACUAG [Mat - Same State NG 2 - JL mod - D12] (Eterna round: R96, puzzle: Same State NG 2)	–	–	–	185 nM	131 nM	140 nM
AGAAGACAUGAGGAUCACCCAUGUCCCUCAUGCGUAGGAUAUAUAAGAAGAAAGAAAAGGAUAGAAGGACGAAAAG [Default title] (puzzle: Same State 1)	97.5 nM	119 nM	194 nM	–	–	–
UGUUAUUAGACAGGAUAUUGAUUGUAAAGUUUUUACAUGAGGAUCACCCAUGUUGUUCAUUCGAACAAGAAGGGUCAAGUUUUU [JR_SSNG2_Sub018] (Eterna round: R96, puzzle: Same State NG 2)	–	–	–	153 nM	35.9 nM	137 nM

Reference: the supplement of paper PMC9170038
